According to PMC4373775:
Residue numbers refer to the chain shown, from its start.

Legend:
[1] = target: T1, ParB_Ala S5A;T32A;T41A;T53A;T110A;T195A;S239A;T254A;T300A;T303A (Mycobacterium tuberculosis H37Rv) (UniProt P9WIJ9); test: EMSA
T1 sequence: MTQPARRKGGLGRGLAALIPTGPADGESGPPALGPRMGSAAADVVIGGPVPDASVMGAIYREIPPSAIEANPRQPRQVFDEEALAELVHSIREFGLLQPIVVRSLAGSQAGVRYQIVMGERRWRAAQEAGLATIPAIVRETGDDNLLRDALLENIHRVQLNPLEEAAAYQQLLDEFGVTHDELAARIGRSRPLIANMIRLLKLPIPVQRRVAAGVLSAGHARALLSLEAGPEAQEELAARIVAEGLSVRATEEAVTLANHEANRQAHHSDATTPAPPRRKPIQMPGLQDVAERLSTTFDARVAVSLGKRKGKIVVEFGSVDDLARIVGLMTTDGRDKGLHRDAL

[2] = target: T2, ParB_Asp S5D;T32D;T41D;T53D;T110D;T195D;S239D;T254D;T300D;T303D (Mycobacterium tuberculosis H37Rv) (UniProt P9WIJ9); test: EMSA
T2 sequence: T1 sequence with A5D, A32D, A41D, A53D, A110D, A195D, A239D, A254D, A300D, A303D

Sequence: GCGAGTGGAGGGACGGCGTGAGTGCTCCGTGGGGCCCGGTGGCCGCTGGACCGTCCGCGCTCGTAAGGTCGGGCCAGGCTTCAACTATCGAACCATTCCAGCGGGAAATGACACCACCGACACCGACGCCTGAGGCCGCGCACAATCCGACGATGAATGTTTCACGTGAAACATCGACAGAATTCGACACCCCCATCGGCGCTGCAGCAGAACGTGCGATGCG (double strand) [parS probe]
- binding [1]: binds
- binding [2]: binds more weakly
